Source: patent US20190359697A1 (Scripps Research, published 2019)

T1: CD19 (UniProt P15391 20-556, limits assumed)
T1 sequence (looked up): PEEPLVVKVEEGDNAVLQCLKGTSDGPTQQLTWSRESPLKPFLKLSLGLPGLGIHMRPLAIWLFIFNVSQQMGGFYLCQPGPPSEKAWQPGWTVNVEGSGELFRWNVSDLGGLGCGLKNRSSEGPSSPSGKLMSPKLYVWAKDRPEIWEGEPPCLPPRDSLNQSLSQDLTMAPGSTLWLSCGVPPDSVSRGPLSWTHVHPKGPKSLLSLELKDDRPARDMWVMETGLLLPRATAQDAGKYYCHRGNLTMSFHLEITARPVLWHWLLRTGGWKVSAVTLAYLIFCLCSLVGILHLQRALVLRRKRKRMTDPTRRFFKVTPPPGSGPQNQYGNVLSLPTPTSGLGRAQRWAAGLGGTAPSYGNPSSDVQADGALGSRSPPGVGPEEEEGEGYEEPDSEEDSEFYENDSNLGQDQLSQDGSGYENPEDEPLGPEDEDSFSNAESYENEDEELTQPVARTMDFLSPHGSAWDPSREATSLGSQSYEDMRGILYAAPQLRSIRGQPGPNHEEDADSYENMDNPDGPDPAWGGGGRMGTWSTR

T2: CD19 (UniProt P15391 20-556)
T2 chain: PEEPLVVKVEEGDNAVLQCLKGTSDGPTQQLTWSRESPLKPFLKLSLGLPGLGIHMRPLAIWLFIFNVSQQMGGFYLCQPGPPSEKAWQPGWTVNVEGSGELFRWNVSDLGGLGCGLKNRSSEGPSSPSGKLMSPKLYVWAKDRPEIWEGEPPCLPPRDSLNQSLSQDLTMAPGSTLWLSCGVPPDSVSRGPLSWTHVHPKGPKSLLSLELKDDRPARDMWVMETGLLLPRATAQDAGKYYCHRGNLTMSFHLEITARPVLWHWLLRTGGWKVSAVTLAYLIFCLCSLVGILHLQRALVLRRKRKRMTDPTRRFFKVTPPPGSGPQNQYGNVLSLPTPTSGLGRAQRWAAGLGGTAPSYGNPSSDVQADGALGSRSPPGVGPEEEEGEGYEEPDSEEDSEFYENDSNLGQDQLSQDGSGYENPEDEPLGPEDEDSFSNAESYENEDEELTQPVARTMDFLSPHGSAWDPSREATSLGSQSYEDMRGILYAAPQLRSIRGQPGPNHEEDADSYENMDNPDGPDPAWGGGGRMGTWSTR


Experiments:
CD19 [1] = biological target: CD19 (UniProt P15391); assay: cell-based or functional assay
CD19 [2] = biological target: T1, CD19; assay: cell-based or functional assay
CD19 [3] = biological target: T2, CD19; assay: flow cytometry cell binding; FIG. 6
CD19 [4] = biological target: T2, CD19; assay: flow cytometry cell binding; FIG. 8
CD19 [5] = biological target: T2, CD19; assay: flow cytometry cell binding; FIG. 7
CD19 [6] = biological target: T2, CD19; assay: flow cytometry cell binding; FIG. 5; WT switch (no PNE)

| Binder | EC50 of cytotoxicity (LDH), sCAR-T cells + switch vs CD19+ RS4;11, Average of the repeat assays (CD19 [1]) | EC50 of cytotoxicity (LDH), sCAR-T cells + switch vs CD19+ RS4;11, assay DTR-5-15 (PBMC) (CD19 [1]) | EC50 of cytotoxicity (LDH), sCAR-T cells + switch vs CD19+ RS4;11, assay DTR-5-16 (CD4:CD8) (CD19 [1]) | EC50 of cytotoxicity (LDH), sCAR-T cells + switch vs CD19+ RS4;11, assay DTR-5-50 (PBMC) (CD19 [1]) | EC50 of cytotoxicity (LDH), sCAR-T cells + switch vs CD19+ RS4;11, assay DTR-5-51 (CD4:CD8) (CD19 [1]) | EC50 of cytotoxicity (LDH), sCAR-T cells + switch vs CD19+ RS4;11, Average of the repeat assays (CD19 [2]) | EC50 of cytotoxicity (LDH), sCAR-T cells + switch vs CD19+ RS4;11, assay DTR-5-15 (PBMC) (CD19 [2]) | EC50 of cytotoxicity (LDH), sCAR-T cells + switch vs CD19+ RS4;11, assay DTR-5-16 (CD4:CD8) (CD19 [2]) | EC50 of cytotoxicity (LDH), sCAR-T cells + switch vs CD19+ RS4;11, assay DTR-5-50 (PBMC) (CD19 [2]) | EC50 of cytotoxicity (LDH), sCAR-T cells + switch vs CD19+ RS4;11, assay DTR-5-51 (CD4:CD8) (CD19 [2]) | EC50 (CD19 [3]) | EC50 (CD19 [4]) | EC50 (CD19 [5]) | EC50 (CD19 [6]) |
| --- | --- | --- | --- | --- | --- | --- | --- | --- | --- | --- | --- | --- | --- | --- |
| hFMCL2b-LCNT/hFMCH4c (Fab, V domains shown) VH: QVQLQESGPGLVKPSETLSVTCTVSGVSLPDYGVSWIRQPPGKGLEWLGVIWGSETTYYNSALKSRLTISKDNSKNQVSLKMSSLTAADTAVYYCAKHYYYGGSYAMDYWGQGTLVTVSS VL: DIQMTQSPSSLSASVGDRVTITCRASQDISKYLNWYQQKPGKAVKLLIYHTSRLHSGVPSRFSGSGSGTDYTLTISSLQPEDFATYFCQQGATLPYTFGQGTKLEIK | 10.2 pM | 8.41 pM | 8.47 pM | 7.54 pM | 16.5 pM | 4.6 pM | 4.57 pM | 4.61 pM | 3.78 pM | 5.45 pM | 1260 pM | 1590 pM |  |  |
| hFMCL2/H4z (antibody, V domains shown) VH: QVQLQESGPGLVKPSETLSVTCTVSGVSLPDYGVSWIRQPPGKGLEWLGVIWGSETTYYNSSLKSRLTISKDNSKNQVSLKMSSLTAADTAVYYCAKHYYYGGSYAMDYWGQGTLVTVSS VL: DIQMTQSPSSLSASVGDRVTITCRASQDISKYLNWYQQKPGKAPKLLIYHTSRLHSGVPSRFSGSGSGTDYTLTISSLQPEDFATYYCQQGATLPYTFGQGTKLEIK |  |  |  |  |  |  |  |  |  |  | 12400 pM | 13100 pM |  |  |
| hFMCL2/H4b WT (antibody, V domains shown) VH: QVQLQESGPGLVKPSETLSVTCTVSGVSLPDYGVSWIRQPPGKGLEWLGVIWGSETTYYNPSLKSRLTISKDNSKNQVSLKMSSLTAADTAVYYCAKHYYYGGSYAMDYWGQGTLVTVSS VL: DIQMTQSPSSLSASVGDRVTITCRASQDISKYLNWYQQKPGKAPKLLIYHTSRLHSGVPSRFSGSGSGTDYTLTISSLQPEDFATYYCQQGATLPYTFGQGTKLEIK |  |  |  |  |  |  |  |  |  |  |  |  | 5380 pM | 4130 pM |
| hFMCL2a-LCNT/hFMCH4b (Fab, V domains shown) VH: QVQLQESGPGLVKPSETLSVTCTVSGVSLPDYGVSWIRQPPGKGLEWLGVIWGSETTYYNPSLKSRLTISKDNSKNQVSLKMSSLTAADTAVYYCAKHYYYGGSYAMDYWGQGTLVTVSS VL: DIQMTQSPSSLSASVGDRVTITCRASQDISKYLNWYQQKPGKAVKLLIYHTSRLHSGVPSRFSGSGSGTDYTLTISSLQPEDFATYYCQQGATLPYTFGQGTKLEIK |  |  |  |  |  | 6.8 pM | 10.4 pM | 6.03 pM | 5.29 pM | 5.45 pM | 1610 pM |  | 2430 pM |  |
| hFMCL2a-LCNT/hFMCH4c (Fab, V domains shown) VH: QVQLQESGPGLVKPSETLSVTCTVSGVSLPDYGVSWIRQPPGKGLEWLGVIWGSETTYYNSALKSRLTISKDNSKNQVSLKMSSLTAADTAVYYCAKHYYYGGSYAMDYWGQGTLVTVSS VL: DIQMTQSPSSLSASVGDRVTITCRASQDISKYLNWYQQKPGKAVKLLIYHTSRLHSGVPSRFSGSGSGTDYTLTISSLQPEDFATYYCQQGATLPYTFGQGTKLEIK |  |  |  |  |  | 9.5 pM | 4.43 pM | 9.32 pM | 7.05 pM | 17.2 pM | 1700 pM | 1810 pM |  |  |
| hFMCL2c-LCNT/hFMCH4b (Fab, V domains shown) VH: QVQLQESGPGLVKPSETLSVTCTVSGVSLPDYGVSWIRQPPGKGLEWLGVIWGSETTYYNPSLKSRLTISKDNSKNQVSLKMSSLTAADTAVYYCAKHYYYGGSYAMDYWGQGTLVTVSS VL: DIQMTQSPSSLSASVGDRVTITCRASQDISKYLNWYQQKPGKAVKLLIYHTSRLHSGVPSRFSGSGSGTDYTLTISSLQPEDFATYFCQQGATLPYTFGQGTKLEIK |  |  |  |  |  | 5.18 pM | 4.04 pM | 3.25 pM | 3.78 pM | 9.65 pM | 1380 pM |  | 1680 pM |  |
| hFMCL2b-LCNT/hFMCH4b (Fab, V domains shown) VH: QVQLQESGPGLVKPSETLSVTCTVSGVSLPDYGVSWIRQPPGKGLEWLGVIWGSETTYYNPSLKSRLTISKDNSKNQVSLKMSSLTAADTAVYYCAKHYYYGGSYAMDYWGQGTLVTVSS VL: DIQMTQSPSSLSASVGDRVTITCRASQDISKYLNWYQQKPGKAVKLLIYHTSRLHSGVPSRFSGSGSGTDYTLTISSLQPEDFATYFCQQGATLPYTFGQGTKLEIK |  |  |  |  |  | 6.21 pM | 5.17 pM | 5.78 pM | 3.93 pM | 9.96 pM | 1220 pM |  | 2270 pM |  |
| hFMCL2/H4b wt (antibody, V domains shown) VH: QVQLQESGPGLVKPSETLSVTCTVSGVSLPDYGVSWIRQPPGKGLEWLGVIWGSETTYYNPSLKSRLTISKDNSKNQVSLKMSSLTAADTAVYYCAKHYYYGGSYAMDYWGQGTLVTVSS VL: DIQMTQSPSSLSASVGDRVTITCRASQDISKYLNWYQQKPGKAPKLLIYHTSRLHSGVPSRFSGSGSGTDYTLTISSLQPEDFATYYCQQGATLPYTFGQGTKLEIK |  |  |  |  |  |  |  |  |  |  |  | 3840 pM |  |  |
| hFMCL2/H4a WT (antibody, V domains shown) VH: QVQLQESGPGLVKPSETLSVTCTVSGVSLPDYGVSWIRQPPGKGLEWLGVIWGSETTYYNPSLKSRLTISKDTSKNQVSLKMSSLTAADTAVYYCAKHYYYGGSYAMDYWGQGTLVTVSS VL: DIQMTQSPSSLSASVGDRVTITCRASQDISKYLNWYQQKPGKAPKLLIYHTSRLHSGVPSRFSGSGSGTDYTLTISSLQPEDFATYYCQQGATLPYTFGQGTKLEIK |  |  |  |  |  | 40.7 pM | 43.2 pM | 50.7 pM | 28.3 pM | 40.7 pM |  |  |  | 6650 pM |
